In doi:10.1101/2020.10.05.326918 (bioRxiv, 2020):

How the values were obtained:
Assay in all cases: cryo-EM structure
MED14 = MED14 (Mus musculus (endogenous in CH12 cells), UniProt A2ABV5 1-1459)
MED24 = target: T1, MED24 (Mus musculus (endogenous in CH12 cells), UniProt Q99K74 1-987)
T1 sequence (looked up): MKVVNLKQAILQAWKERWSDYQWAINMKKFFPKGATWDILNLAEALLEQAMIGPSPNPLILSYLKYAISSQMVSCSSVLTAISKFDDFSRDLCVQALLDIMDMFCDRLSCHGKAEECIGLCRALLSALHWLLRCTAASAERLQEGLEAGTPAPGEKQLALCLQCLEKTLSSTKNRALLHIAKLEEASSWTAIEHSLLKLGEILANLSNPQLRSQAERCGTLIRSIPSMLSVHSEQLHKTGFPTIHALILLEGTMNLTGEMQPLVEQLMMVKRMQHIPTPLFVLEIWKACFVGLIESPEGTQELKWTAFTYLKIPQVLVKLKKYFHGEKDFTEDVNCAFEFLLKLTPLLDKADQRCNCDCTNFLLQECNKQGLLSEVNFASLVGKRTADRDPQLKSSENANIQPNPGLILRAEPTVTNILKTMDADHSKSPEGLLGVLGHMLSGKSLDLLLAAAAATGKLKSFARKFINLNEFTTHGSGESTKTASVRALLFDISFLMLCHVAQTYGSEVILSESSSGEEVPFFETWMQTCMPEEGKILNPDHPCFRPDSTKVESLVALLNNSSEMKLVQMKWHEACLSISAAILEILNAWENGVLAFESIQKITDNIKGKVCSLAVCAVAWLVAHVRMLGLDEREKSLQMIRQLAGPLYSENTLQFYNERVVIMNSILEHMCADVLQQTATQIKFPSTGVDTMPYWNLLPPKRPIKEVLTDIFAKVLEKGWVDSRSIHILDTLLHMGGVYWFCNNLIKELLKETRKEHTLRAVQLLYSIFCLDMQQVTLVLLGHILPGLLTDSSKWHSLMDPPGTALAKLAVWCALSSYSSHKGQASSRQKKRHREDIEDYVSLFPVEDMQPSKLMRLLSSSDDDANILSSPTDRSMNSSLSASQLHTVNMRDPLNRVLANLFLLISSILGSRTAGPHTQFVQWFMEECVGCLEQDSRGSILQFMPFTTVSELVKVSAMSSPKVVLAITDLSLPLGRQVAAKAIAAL

MED16 = target: T2, MED16 (Mus musculus (endogenous in CH12 cells), UniProt Q6PGF3 1-828)
T2 sequence (looked up): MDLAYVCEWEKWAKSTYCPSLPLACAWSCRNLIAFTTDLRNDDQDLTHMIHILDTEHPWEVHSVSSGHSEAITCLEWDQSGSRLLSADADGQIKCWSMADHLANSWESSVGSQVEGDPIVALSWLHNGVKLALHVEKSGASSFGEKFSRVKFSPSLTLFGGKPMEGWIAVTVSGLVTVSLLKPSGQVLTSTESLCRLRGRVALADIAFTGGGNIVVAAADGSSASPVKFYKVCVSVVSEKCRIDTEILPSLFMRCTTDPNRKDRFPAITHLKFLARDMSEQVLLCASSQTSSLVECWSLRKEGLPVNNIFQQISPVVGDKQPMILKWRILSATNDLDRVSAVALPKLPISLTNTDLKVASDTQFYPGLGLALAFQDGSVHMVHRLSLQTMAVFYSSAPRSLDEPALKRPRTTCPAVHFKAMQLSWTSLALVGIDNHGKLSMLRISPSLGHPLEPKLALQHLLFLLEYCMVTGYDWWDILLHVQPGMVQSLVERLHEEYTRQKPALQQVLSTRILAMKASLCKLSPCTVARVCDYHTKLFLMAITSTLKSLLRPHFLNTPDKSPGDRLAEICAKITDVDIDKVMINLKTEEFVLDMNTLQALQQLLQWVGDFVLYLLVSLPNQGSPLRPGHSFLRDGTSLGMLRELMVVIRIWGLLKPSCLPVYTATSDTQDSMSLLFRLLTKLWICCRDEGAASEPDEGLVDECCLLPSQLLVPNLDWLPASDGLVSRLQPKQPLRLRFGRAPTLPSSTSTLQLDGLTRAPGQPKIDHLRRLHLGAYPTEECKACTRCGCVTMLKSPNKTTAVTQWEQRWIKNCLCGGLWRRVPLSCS

MED23 = target: T3, MED23 (Mus musculus (endogenous in CH12 cells), UniProt Q80YQ2 1-1367)
T3 sequence (looked up): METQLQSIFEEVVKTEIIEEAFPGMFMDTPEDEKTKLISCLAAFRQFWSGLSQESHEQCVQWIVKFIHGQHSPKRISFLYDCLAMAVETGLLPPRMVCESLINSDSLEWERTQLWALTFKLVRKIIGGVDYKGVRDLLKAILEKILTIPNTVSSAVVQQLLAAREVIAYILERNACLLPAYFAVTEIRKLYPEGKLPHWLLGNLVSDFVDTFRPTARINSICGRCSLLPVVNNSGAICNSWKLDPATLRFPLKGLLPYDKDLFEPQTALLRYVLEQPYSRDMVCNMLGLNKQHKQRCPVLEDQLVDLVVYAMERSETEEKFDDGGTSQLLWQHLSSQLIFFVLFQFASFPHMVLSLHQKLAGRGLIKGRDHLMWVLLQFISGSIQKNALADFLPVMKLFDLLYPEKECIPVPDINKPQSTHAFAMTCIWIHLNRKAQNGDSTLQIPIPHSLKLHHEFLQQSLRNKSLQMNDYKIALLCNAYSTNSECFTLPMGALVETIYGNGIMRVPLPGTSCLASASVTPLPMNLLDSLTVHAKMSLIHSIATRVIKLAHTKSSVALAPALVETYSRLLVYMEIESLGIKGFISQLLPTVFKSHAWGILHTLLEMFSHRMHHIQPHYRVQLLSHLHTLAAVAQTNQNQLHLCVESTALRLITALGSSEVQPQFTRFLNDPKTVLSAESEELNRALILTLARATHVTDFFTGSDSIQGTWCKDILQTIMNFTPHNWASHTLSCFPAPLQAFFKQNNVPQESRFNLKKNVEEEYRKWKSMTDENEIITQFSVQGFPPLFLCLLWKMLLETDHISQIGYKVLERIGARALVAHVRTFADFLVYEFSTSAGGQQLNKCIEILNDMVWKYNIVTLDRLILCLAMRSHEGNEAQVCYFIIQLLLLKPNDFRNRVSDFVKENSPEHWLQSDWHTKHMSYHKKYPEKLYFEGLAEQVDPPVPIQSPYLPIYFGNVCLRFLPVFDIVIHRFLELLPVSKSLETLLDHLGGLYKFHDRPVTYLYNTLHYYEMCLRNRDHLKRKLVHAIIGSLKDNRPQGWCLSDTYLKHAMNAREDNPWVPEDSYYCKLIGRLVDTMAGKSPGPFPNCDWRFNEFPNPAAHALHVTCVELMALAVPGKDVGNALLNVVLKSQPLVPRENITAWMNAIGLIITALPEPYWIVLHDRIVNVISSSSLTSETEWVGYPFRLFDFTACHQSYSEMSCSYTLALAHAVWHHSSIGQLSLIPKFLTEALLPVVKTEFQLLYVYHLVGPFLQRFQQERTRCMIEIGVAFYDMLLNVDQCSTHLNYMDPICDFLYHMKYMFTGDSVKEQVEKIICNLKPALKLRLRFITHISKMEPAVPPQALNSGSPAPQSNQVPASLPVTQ

Measured: binding result

MED14, sequence (A2ABV5 whole entry): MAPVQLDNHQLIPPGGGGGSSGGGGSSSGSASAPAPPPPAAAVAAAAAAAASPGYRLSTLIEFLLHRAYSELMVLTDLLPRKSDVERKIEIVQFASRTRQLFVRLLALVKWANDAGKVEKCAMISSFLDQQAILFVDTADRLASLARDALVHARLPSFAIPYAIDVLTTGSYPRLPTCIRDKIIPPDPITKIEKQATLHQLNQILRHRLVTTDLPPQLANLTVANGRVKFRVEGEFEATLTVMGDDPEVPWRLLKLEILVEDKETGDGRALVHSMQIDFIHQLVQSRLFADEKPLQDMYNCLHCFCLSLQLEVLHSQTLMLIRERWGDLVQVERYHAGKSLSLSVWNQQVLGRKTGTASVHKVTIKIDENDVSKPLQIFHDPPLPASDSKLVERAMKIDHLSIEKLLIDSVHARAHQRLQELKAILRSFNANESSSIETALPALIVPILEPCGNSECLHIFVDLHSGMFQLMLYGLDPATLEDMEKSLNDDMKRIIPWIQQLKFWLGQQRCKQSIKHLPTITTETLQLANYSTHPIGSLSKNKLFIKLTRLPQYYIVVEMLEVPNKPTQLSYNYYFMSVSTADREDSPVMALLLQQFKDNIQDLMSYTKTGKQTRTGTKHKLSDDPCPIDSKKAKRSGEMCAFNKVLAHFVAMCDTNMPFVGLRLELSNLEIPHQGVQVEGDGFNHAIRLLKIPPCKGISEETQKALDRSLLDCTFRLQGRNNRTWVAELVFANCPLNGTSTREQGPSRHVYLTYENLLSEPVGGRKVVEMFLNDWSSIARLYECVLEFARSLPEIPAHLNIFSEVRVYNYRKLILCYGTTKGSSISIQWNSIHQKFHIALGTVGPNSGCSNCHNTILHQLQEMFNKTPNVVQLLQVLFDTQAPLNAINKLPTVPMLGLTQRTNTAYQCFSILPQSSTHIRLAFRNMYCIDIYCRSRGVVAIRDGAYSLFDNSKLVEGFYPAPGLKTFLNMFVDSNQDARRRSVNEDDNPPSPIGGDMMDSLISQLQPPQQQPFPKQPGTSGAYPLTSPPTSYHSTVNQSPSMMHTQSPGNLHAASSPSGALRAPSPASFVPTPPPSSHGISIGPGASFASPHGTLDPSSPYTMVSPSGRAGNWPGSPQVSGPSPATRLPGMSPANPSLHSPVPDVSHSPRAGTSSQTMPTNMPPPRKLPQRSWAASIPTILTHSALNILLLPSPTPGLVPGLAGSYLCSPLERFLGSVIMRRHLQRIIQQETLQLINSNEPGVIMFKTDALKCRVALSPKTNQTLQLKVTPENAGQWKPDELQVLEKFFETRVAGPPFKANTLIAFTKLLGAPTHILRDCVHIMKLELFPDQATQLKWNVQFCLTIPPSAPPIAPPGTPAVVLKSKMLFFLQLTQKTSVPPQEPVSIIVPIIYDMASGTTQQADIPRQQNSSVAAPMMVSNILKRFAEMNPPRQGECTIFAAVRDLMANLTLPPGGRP

B1: MED15 (natural protein, Mus musculus (endogenous in CH12 cells), UniProt Q924H2 1-789, looked up)
chain: MDVSGQETDWRSAAFRQKLVSQIEDAMRKAGVAHSKSSKDMESHVFLKAKTRDEYLSLVARLIIHFRDIHNKKSQASVSDPMNALQSLTGGPTPGAAGIGMPPRGPGQSLGGMGGLGAMGQPLPLSGQPPPGTSGMAPHGMAVVSTATPQTQLQLQQVALQQQQQQQQQQQFQQQQAALQQQQQQQQQQQQQQQFQAQQNAMQQQFQAVVQQQQLQQQQQQQHLIKLHHQSQQQQIQQQQLQRMAQLQLQQQQQQQQQQALQAQPPMQQPSMQQPQPPPSQALPQQLSQLHHPQHHQPPPQAQQSPIAQNQPPQIPPQSQSQPLVSQAQALPGPMLYAAQQQLKFVRAPMVVQQPQVQPQVQQVQPQVQPQAAVQAAQSAQMVAPGVQMIAEALAQGGMHVRARFPPTSTMSAGPSSSISLGGQPTTQVSQSSLTMLSSPSPGQQVQTPQSMPPPPQPSPQPGSQPNSNVSSGPAPSPSSFLPSPSPQPSQSPVTARTPQNFSVPSPGPLNTPVNPSSVMSPAGSSQAEEQQYLDKLKQLSKYIEPLRRMINKIDKNEDRKKDLSKMKSLLDILTDPSKRCPLKTLQKCEIALEKLKNDMAVPTPPPPPVLPTKQQDLCQPLLDAVLANIRSPVFNHSLYRTFVPAMMAIHGPPIVSPVVCSRKRRFEEDERQSIPNVLQGEVARLDPKFLVNLDPSHCSNNGTVHLICKLDDKDLPSVPPLELSVPADYPAQSPMWIDRQWQYDANPFLQSVHRCMTSRLLQLPDKHSVTALLNTWAQSIHQACLSAA
binds: all assays above

B2: MED25 (natural protein, Mus musculus (endogenous in CH12 cells), UniProt Q8VCB2 1-745, looked up)
chain: MVPGSEGPARAGGLVADVVFVIEGTANLGPYFEELRKHYLLPAIEYFNGGPPAETDFGGDYGGTQYSLVVFNTVDCAPESYVQCHAPTSSAYEFVTWLDGIKFMGGGGESCSLIAEGLSTALQLFDDFKKMREQIGQTHRVCLLICNSPPYLLPAVESTTYSGCTTESLVQKIGERGIHFSIVSPRKLPALRLLFEKAAPPALLEPLQQPADVSQDPRHMVLVRGLVLPVGGSSTSGSLQTKQAVPLPPAPASAATLSAAPPQALPPVPPQYQVPGNLSAAQVAAQNAVEAAKSQKAGLGPRFSPINPLQQAAPGVGPPFSQAPAPPLAPVPPGAPKPPPASQPSLVSTVAPGPVLAAPAQPGAPSLAGTVTPGGVNGPSAAQLGGPALGGQQSVSNKLLAWSGVLEWQEKPKPASVDANTKLTRSLPCQVYVNHGENLKTEQWPQKLIMQLIPQQLLTTLGPLFRNSRMVQFHFTNKDLESLKGLYRIMGNGFAGCVHFPHTAPCEVRVLMLLYSSKKKIFMGLIPYDQSGFVNGIRQVITNHKQVQQQKLEQQRGMGAQQAPPVLGPILEEQARPPQNLLQLRAPQPQPQGAVGASAATGQPQPQGATQAPTGAPQGPPGAAPGPPPSGPILRPQNPGANPQLRSLLLNPAPPQTGVPPPQASLHHLQPPGAPTLLPPHQSMGQPQLGPQLLHPPPAQSWPTQLPQRAPLPGQMLLSGGPRGPVPQPGLQPSVMEDDILMDLI
binds: MED24 | MED16 | MED23
